The values below come from paper PMC10762086, “Non-canonical interplay between glutamatergic NMDA and dopamine receptors shapes synaptogenesis” (Nature Communications, 2024).

The term koff denotes a measure of how fast the partners let go of each other.

The assay has as its target GluN1 subunit-containing NMDAR (GluN1-NMDAR), tagged GluN1 expressed at the surface of hippocampal neurons (UniProt P35439 19-938, Only the defined, expressed GluN1 subunit is built: it carries the D1R interaction through its C1 cassette. The canonical 938-aa form is taken as the C1-containing GluN1-1a; the exact splice form is n). The assay can be described thus: multidimensional spectral single molecule localization microscopy (MS-SMLM; two-colour quantum-dot single-particle tracking); live cultured hippocampal neurons (immature DIV 7-9; mature DIV 15 and above), surface receptors labelled by antibodies against extracellular tags and Qd-655 / Qd-705; 1000 frames of 50 ms (20 Hz), 37 °C; receptors counted as interacting when their distance fell below 100 nm; Koff estimated …. The following applies: partners not purified.

B1: dopamine receptor 1 wild-type (D1R-wt), extracellularly tagged, expressed in hippocampal neurons (receptor, UniProt P18901 1-446, looked up)
chain: MAPNTSTMDEAGLPAERDFSFRILTACFLSLLILSTLLGNTLVCAAVIRFRHLRSKVTNFFVISLAVSDLLVAVLVMPWKAVAEIAGFWPLGPFCNIWVAFDIMCSTASILNLCVISVDRYWAISSPFQYERKMTPKAAFILISVAWTLSVLISFIPVQLSWHKAKPTWPLDGNFTSLEDTEDDNCDTRLSRTYAISSSLISFYIPVAIMIVTYTSIYRIAQKQIRRISALERAAVHAKNCQTTAGNGNPVECAQSESSFKMSFKRETKVLKTLSVIMGVFVCCWLPFFISNCMVPFCGSEETQPFCIDSITFDVFVWFGWANSSLNPIIYAFNADFQKAFSTLLGCYRLCPTTNNAIETVSINNNGAVVFSSHHEPRGSISKDCNLVYLIPHAVGSSEDLKKEEAGGIAKPLEKLSPALSVILDYDTDVSLEKIQPVTHSGQHST
notes: dopamine D1 receptor; also called dopamine D1 receptor; source: cultured rat hippocampal neurons, transfected (calcium phosphate), on live cells; not shown: extracellular tag (GFP or Flag)
As for B1, the koff is 13 ± 0.7 s⁻¹.
